Assay results taken from patent US20250179192A1 (PHARMABCINE, published 2025).

Key:
[1] = target: T1, hDLL4 expressed on HEK293 cells (human, UniProt Q9NR61 27-685); assay: FACS on hDLL4-overexpressing HEK293 cells (293-DLL4), 5 nM, anti-human IgG-PE secondary; secondary only 82.0
T1 construct: whole, on cells; also called DLL4-overexpressed HEK293 cells
Experimental: Specifically, the pcDNA-hDLL4 vector synthesized by GeneArt was transfected into HEK293 cells using Lipofectamin™ 2000 (Invitrogen #1168-019, USA), and neomycin (Gibco #10131, 50 mg/ml) was added for selection. Then, all grown cells were collected and cultured in a pool state. Then, 23 types of single colonies were obtained by culture using a limiting dilution method, and among the single colonies, one type of cell line that highly overexpressed hDLL4 was selected and tested. The selected cells were prepared to a concentration of 2×10⁷ cells/ml in FACS buffer (0.5% FBS, 0.05% sodium azide in PBS) and dispensed at 50 μl into each of FACS tubes. 5 nM fusion protein and control antibodies (6A6, 6A6×DLL4, D4, D4×DLL4, Minod-Fc) were added in 100 μl to each of the FACS tubes containing the cells, followed by reaction at 4° C. for 30 minutes. After completion of reaction, 2 ml of FACS buffer was added to each tube, followed by centrifugation at 1500 rpm for 3 minutes. The supernatant was removed, the cells were well resuspended, and then 100 μl of anti-human IgG-PE antibody (1:200, […], #A80-248PE) was added, followed by reaction at 4° C. for 20 minutes. After completion of reaction, 2 ml of FACS buffer was added to each FACS tube, followed by centrifugation at 1500 rpm for 3 minutes. The separated supernatant was removed, the cells were resuspended in 200 μl of FACS buffer, and the binding activity was analyzed using FACS (Beckton Dickinson, Lyric).

[2] = target: T2, hKDR-ECD (human, UniProt P35968 20-764); assay: SPR Biacore T200, fusion protein captured on Protein A chip, antigen as analyte, 1:1 model
T2 construct: extracellular domain; Analyte in SPR; also called human KDR (VEGFR-2) extracellular domain
T2 sequence (P35968 20-764): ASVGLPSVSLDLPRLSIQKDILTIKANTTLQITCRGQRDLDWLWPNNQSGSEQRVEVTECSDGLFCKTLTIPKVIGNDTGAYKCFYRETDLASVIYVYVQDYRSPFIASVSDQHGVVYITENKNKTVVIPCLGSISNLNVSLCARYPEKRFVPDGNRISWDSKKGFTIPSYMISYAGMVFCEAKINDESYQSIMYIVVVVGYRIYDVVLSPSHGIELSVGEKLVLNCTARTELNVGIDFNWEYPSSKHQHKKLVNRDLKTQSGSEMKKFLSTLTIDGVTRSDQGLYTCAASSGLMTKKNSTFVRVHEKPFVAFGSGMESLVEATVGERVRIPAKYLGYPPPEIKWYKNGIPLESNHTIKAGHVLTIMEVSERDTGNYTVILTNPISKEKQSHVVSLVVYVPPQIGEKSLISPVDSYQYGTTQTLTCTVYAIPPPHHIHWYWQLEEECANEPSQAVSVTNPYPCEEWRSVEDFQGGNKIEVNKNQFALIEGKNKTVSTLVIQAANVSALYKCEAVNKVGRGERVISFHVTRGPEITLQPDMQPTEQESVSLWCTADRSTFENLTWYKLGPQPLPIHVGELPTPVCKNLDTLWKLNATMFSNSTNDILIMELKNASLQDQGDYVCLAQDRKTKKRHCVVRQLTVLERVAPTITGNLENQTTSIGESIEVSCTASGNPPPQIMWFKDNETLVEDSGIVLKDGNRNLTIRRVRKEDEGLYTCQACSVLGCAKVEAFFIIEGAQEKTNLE
Experimental: (§1) The binding ability of the selected fusion protein to the antigen was measured using SPR (Biacore T200, Cytiva). The fusion protein was captured and analyzed using the antigen protein as an analyte. Using a Protein A chip, the fusion protein was immobilized on the surface according to the manufacturer's instructions. The fusion protein on the sensor chip was diluted with PBS-T running buffer to a concentration of 5 μg/ml and injected at a flow rate of 10 μl/min to reach about 200 RU. The antigen was diluted with PBS-T running buffer by concentration and injected at a flow rate of 30 μl/min for 4 minutes, and the dissociation time was set to 10 minutes. To remove the fusion protein bound every cycle, a regeneration solution (10 mM glycine-HCl, pH 1.5) was injected at a flow rate of 30 μl/min for 1 minute. The experimental results were calculated using the 1:1 binding model of BIA evaluation software version 1.0.

[3] = target: T3, hDLL4 (human, UniProt Q9NR61 27-524, limits assumed); assay: as above
T3 construct: Analyte in SPR; also called human delta-like ligand 4 (soluble antigen protein)
T3 sequence (Q9NR61 27-524 limits assumed): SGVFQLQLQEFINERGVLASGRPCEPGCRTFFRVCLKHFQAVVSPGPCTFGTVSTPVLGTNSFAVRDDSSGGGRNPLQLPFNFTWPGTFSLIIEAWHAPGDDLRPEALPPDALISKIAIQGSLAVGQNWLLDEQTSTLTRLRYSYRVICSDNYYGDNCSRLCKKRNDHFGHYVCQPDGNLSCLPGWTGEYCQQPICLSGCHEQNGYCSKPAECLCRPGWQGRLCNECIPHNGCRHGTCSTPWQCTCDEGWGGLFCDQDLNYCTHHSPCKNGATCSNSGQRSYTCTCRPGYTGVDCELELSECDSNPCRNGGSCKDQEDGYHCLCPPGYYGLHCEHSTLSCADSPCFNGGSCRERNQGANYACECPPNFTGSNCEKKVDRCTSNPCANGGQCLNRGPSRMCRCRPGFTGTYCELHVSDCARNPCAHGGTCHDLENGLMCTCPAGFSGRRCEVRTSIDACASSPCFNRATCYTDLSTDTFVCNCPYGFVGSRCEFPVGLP
Experimental: as §1

[4] = target: T4, VEGFR2 (KDR) on HUVECs (human, UniProt P35968 20-1356); assay: FACS on HUVECs, 5 nM, anti-human IgG-PE secondary; secondary only 65.7
T4 construct: Endogenous receptor on HUVECs; also called KDR (VEGFR-2)
T4 sequence (P35968 20-1356 limits assumed): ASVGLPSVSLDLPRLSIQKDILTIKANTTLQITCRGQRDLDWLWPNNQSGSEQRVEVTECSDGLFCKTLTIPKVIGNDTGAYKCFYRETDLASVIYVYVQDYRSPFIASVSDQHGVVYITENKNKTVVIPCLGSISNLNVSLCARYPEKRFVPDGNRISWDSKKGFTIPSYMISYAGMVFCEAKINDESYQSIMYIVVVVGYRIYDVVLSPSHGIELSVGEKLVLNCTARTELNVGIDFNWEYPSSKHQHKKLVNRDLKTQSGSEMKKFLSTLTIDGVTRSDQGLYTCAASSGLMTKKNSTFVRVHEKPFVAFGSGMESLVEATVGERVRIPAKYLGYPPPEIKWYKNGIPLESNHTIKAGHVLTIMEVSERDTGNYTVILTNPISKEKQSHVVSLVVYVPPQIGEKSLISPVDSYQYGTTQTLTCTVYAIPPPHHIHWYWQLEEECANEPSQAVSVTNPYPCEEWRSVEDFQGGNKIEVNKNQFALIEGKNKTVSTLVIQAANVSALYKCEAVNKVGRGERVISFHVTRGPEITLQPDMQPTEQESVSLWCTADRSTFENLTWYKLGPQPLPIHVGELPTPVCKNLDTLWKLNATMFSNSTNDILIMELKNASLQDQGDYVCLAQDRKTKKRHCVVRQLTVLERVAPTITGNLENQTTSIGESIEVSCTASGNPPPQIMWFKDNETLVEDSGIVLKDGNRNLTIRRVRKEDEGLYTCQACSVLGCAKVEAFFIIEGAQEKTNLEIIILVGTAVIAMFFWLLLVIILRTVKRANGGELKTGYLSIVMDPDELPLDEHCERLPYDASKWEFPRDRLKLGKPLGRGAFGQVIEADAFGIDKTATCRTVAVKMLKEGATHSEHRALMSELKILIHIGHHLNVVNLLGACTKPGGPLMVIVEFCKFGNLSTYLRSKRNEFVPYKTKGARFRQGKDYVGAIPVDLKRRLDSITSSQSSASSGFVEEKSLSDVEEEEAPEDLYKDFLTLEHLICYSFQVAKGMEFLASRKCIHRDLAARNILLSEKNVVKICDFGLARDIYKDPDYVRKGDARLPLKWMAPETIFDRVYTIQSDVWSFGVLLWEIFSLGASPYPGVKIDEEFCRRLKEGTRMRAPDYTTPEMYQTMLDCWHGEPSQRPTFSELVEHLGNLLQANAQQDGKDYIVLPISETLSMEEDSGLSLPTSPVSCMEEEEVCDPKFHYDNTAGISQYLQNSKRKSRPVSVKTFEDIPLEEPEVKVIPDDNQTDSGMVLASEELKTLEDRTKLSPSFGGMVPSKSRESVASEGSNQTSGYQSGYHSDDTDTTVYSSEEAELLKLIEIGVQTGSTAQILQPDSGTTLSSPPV
Experimental: To determine the binding activity of the fusion protein to HUVECs, FACS analysis was performed using the fusion protein and control antibodies (6A6, 6A6×DLL4, D4, Minod-Fc).
Specifically, HUVECs (LONZA, Cat No. C2519A) were cultured at 37° C. and 5% CO₂ using a plate coated with 2% gelatin and VascuLife medium complete kit (Lifeline Cell Technology, Cat No. #LCT-LL-0005). The cells were prepared at a concentration of 2×10⁷ cells/ml in FACS buffer (0.5% FBS, 0.05% sodium azide in PBS) and dispensed at 50 μl into each of FACS tubes. 100 μl of each antibody at a concentration of 5 nM was mixed in the FACS tube, followed by reaction at 4° C. for 30 minutes. After completion of reaction, 2 ml of FACS buffer was added to each tube, followed by centrifugation at 1500 rpm for 3 minutes. The supernatant was removed, the cells were resuspended, and 100 μl of anti-human IgG-PE antibody (1:200, Bethyl, #A80-248PE) was added, followed by reaction at 4° C. for 20 minutes. 2 ml of FACS buffer was added to each FACS tube, followed by centrifugation at 1500 rpm for 3 minutes. The separated supernatant was removed, the cells were resuspended in 200 μl of FACS buffer, and the binding activity was analyzed using FACS (Beckton Dickinson, Lyric).

[5] = target: T5, KDR1-3 domains (UniProt P35968 20-327, limits assumed); assay: Octet BLI, KDR1-3 domains on biosensor, scFv in solution
T5 construct: domain: KDR1-3 domains; Immobilized on the Octet biosensor; also called KDR D1-D3; KDR1-3 domain-Fc (as used for panning)
T5 sequence (P35968 20-327 limits assumed): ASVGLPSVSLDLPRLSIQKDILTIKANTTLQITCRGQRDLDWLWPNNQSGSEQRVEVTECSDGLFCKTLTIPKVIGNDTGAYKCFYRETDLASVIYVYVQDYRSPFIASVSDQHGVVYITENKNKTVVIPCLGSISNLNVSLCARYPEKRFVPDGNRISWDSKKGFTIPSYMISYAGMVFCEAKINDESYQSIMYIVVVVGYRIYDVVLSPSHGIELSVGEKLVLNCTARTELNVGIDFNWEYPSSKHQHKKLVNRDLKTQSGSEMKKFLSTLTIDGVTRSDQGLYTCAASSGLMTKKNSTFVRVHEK
Experimental: The binding ability of the selected antibodies to the antigen was measured using Octet (Fortebio). To this end, KDR1-3 domains were immobilized on a biosensor, candidate antibodies expressed in scFv form were added and bound, and the dissociation rate constant was measured. The results of measurement of dissociation rate constant for the five selected optimized clones [Table 1] and amino acid sequences [Tables 2 and 3] are shown below.

T1 sequence (Q9NR61 27-685): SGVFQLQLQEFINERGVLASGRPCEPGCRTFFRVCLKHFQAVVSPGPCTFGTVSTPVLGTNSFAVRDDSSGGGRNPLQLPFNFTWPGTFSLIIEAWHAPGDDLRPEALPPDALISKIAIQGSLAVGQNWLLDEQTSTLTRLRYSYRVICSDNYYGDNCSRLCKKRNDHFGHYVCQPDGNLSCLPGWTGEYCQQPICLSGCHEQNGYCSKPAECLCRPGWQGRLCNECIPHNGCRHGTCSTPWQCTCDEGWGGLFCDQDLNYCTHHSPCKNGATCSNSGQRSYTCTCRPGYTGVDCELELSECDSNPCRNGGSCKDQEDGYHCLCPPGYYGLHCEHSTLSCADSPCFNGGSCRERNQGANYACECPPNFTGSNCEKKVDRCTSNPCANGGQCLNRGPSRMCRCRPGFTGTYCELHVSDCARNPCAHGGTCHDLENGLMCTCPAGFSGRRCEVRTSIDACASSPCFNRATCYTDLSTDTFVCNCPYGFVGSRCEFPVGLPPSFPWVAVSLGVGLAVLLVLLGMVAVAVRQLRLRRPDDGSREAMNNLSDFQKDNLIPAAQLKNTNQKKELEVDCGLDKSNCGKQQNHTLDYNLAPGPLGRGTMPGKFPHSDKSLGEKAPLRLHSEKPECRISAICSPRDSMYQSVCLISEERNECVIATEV

B1: 6A6×DLL4 (bispecific antibody)
VH: QMQLVQSGAEVKKPGASVKLSCKASGYTFSSYWMHWVRQAPGQRLEWMGEINPGNGHTNYNEKFKSRVTITVDKSASTAYMELSSLRSEDTAVYYCAKIWGPSLTSPFDYWGQGTLVTVSS
Notch1-VL: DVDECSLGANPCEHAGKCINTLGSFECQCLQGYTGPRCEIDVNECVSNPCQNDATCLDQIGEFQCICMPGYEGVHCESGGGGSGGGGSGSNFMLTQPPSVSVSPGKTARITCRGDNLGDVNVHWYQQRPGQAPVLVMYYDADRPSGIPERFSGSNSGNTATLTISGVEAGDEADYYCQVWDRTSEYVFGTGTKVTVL
notes: Comparative fusion protein with a 6A6 backbone; it was captured on a Protein A chip; also called 6A6xDLL4
For B1, the “Geometric Mean : PE-A” value [1] was 968, the Kd [2] was 4.46 nM and the Pmax [2] was 502. It also gave a koff [2] of 0.000837 s⁻¹, a kon [2] of 188000 M⁻¹ s⁻¹ and a Pmax [3] of 74.9. For the same binder, the kon [3] was 45800 M⁻¹ s⁻¹ and the “Geometric Mean : PE-A” value [4] was 380.

B2: 6A6 (control antibody) (antibody, V domains shown)
VH: QMQLVQSGAEVKKPGASVKLSCKASGYTFSSYWMHWVRQAPGQRLEWMGEINPGNGHTNYNEKFKSRVTITVDKSASTAYMELSSLRSEDTAVYYCAKIWGPSLTSPFDYWGQGTLVTVSS
VL: SNFMLTQPPSVSVSPGKTARITCRGDNLGDVNVHWYQQRPGQAPVLVMYYDADRPSGIPERFSGSNSGNTATLTISGVEAGDEADYYCQVWDRTSEYVFGTGTKVTVLG
In the case of B2, the “Geometric Mean : PE-A” value [1] is reported as 84.6 and the “Geometric Mean : PE-A” value [4] is reported as 352.

B3: D4 (IgG1 form) (antibody, V domains shown)
VH: EVQLVESGGGLVQPGGSLRLSCAASGYTFSSYWMSWVRQAPGKGLEWVSEINPGNGHTNYNEKFKSRFTISRDKSKNTLYLQMNSLRAEDTAVYYCARHWGPSLTSPFDYWGQGTLVTVSS
VL: DIQMTQSPSSLSASVGDRVTITCRADNLGDVNVHWYQQKPGKAPKLLIYYDADRPSGVPSRFSGSNSGNDATLTISSLQPEDFATYYCQAPTNNDPYTFGQGTKVEIKR
notes: also called optimized antibody D4
For B3, the “Geometric Mean : PE-A” value [1] was 71.1 and the “Geometric Mean : PE-A” value [4] was 456.

B4: D4 (scFv form) (scFv, V domains shown)
VH: EVQLVESGGGLVQPGGSLRLSCAASGYTFSSYWMSWVRQAPGKGLEWVSEINPGNGHTNYNEKFKSRFTISRDKSKNTLYLQMNSLRAEDTAVYYCARHWGPSLTSPFDYWGQGTLVTVSS
VL: DIQMTQSPSSLSASVGDRVTITCRADNLGDVNVHWYQQKPGKAPKLLIYYDADRPSGVPSRFSGSNSGNDATLTISSLQPEDFATYYCQAPTNNDPYTFGQGTKVEIKR
notes: Tested as scFv
Binder B4 has a koff [5] of 0.000165 s⁻¹.

B5: D3 (scFv form) (scFv, V domains shown)
VH: EVQLVESGGGLVQPGGSLRLSCAASGYTFSSYWMSWVRQAPGKGLEWVSEINPGNGHTNYNEKFKSRFTISRDKSKNTLYLQMNSLRAEDTAVYYCARHWGPSLTSPFDYWGQGTLVTVSS
VL: DIQMTQSPSSLSASVGDRVTITCRADNLGDVNVHWYQQKPGKAPKLLIYYDADRPSGVPSRFSGSNSGNDATLTISSLQPEDFATYYCQAPTKNVPYTFGQGTKVEIKR
notes: Tested as scFv
In the case of B5, the koff [5] is reported as 0.00015 s⁻¹.

B6: LH-E7 (scFv form) (scFv, V domains shown)
VH: EVQLVESGGGLVQPGGSLRLSCAASGYTFSSYWMSWVRQAPGKGLEWVSEINPGNGHTNYNEKFKSRFTISRDKSKNTLYLQMNSLRAEDTAVYYCARHWGPSLTSPFDYWGQGTLVTVSS
VL: DIQMTQSPSSLSASVGDRVTITCRADNLGDVNVHWYQQKPGKAPKLLIYYDADRPSGVPSRFSGSNSGNDATLTISSLQPEDFATYYCQAPTRIAPYTFGQGTKVEIKR
notes: Tested as scFv
Binder B6 has a koff [5] of 0.000111 s⁻¹.

B7: LHL-G1 (scFv form) (scFv, V domains shown)
VH: EVQLVESGGGLVQPGGSLRLSCAASGYTFSSYWMSWVRQAPGKGLEWVSEINPGNGHTNYNEKFKSRFTISRDKSKNTLYLQMNSLRAEDTAVYYCARSYRPSLTSPFDFWGQGTLVTVSS
VL: DIQMTQSPSSLSASVGDRVTITCRADNLGDVNVHWYQQKPGKAPKLLIYYDADRPSGVPSRFSGSNSGNDATLTISSLQPEDFATYYCQAPTTNEPYTFGQGTKVEIKR
notes: Tested as scFv
In the case of B7, the koff [5] is reported as 0.000239 s⁻¹.

B8: A5 (scFv form) (scFv, V domains shown)
VH: EVQLVESGGGLVQPGGSLRLSCAASGYTFSSYWMSWVRQAPGKGLEWVSEINPGNGHTNYNEKFKSRFTISRDKSKNTLYLQMNSLRAEDTAVYYCARHWGPSLTSPFDYWGQGTLVTVSS
VL: DIQMTQSPSSLSASVGDRVTITCRADNLGDVNVHWYQQKPGKAPKLLIYYDADRPSGVPSRFSGSNSGNDATLTISSLQPEDFATYYCQAPTTHLPYTFGQGTKVEIKR
notes: Tested as scFv
Work on B8 yielded a koff [5] of 0.000187 s⁻¹.
